In the supplement of paper PMC10065799, “High-throughput profiling of sequence recognition by tyrosine kinases and SH2 domains using bacterial peptide display” (eLife, 2023):

What follows are sequences tested against FGFR3 (UniProt P22607) (assay: phosphorylation enrichment, bacterial display (enrichment ratio); higher = better substrate or ligand; peptides without Tyr show the background).
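Further: 11-residue human phosphosite peptides and single-mutation variants displayed on the E. coli surface, counted by deep sequencing, each peptide's frequency after selection divided by its frequency in the unselected input library; frequency after pTyr selection over input frequency; kinase dosed for 20-30% of maximal phosphorylation in three min.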

Sequence of FGFR3 (P22607 whole entry, looked up): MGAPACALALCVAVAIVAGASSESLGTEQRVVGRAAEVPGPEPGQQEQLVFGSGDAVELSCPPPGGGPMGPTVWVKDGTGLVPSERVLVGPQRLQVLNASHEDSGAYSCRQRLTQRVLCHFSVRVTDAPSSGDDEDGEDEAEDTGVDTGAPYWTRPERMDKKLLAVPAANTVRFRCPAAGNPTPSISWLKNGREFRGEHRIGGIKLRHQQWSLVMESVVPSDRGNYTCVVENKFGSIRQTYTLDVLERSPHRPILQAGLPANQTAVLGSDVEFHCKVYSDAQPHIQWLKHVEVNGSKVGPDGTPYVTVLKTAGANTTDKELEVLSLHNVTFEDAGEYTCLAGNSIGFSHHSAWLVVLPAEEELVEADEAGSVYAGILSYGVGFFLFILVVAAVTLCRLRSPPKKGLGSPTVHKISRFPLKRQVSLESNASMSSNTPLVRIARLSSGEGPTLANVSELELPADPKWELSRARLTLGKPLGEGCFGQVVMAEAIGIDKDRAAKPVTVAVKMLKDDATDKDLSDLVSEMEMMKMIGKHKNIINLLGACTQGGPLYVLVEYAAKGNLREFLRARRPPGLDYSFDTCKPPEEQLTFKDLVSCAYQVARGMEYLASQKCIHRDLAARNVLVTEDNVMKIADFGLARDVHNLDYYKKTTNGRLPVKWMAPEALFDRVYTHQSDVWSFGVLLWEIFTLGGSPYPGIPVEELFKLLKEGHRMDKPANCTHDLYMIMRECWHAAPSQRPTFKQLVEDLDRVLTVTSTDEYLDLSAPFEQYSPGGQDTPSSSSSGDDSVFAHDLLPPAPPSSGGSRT

Sequence	phosphorylation enrichment
LTERGYSFTTK [ACTG1_Y198_T203K]	1.54
GLAKGYIDPET [CSNK1G2_Y195_E194G]	0.48
KRFRIYHLAIS [BRCA2_Y3009_T3013I_YF]	0.625
LEYNEYFRDLN [HPRT1_Y198_D194E]	1.75
RDMNAYIRPSP [MMAA_Y207]	1.02
HELYVYKCDEN [DOCK3_Y548]	1.05
EIRTQYEVMAS [GFAP_Y242_A244V]	0.635
FADIAYNFHHG [PAH_Y166_R169H_YF]	0.478
DAPVVYLGSFG [PRAG1_Y132_R137G]	0.623
VVEFGYEFFAK [PPP1CB_Y254_D252Y_YF]	0.829
AIMSFYATLID [RYR1_Y2426_A2428T]	1.09
TLDTDYQMTKR [ADA_Y308]	0.584
NKFTTYLPRLP [C9orf24_Y126_YF]	0.503
GFRVFYTPDSR [PTPRF_Y451_YF]	0.64
PYIDSYEKDVA [PGM1_Y521_L516P]	1.08
GIFEDYVEGLR [MYL6_Y89_T85I_YF]	0.793
HFECKYVINAI [MAOA_Y268_YF]	0.998
RHFTTYDTNGR [CLCA1_Y665_Y661H]	0.755
QQLQGYVPSNY [FRK_Y99_I100V]	0.733
IGHGSYAKVLL [PRKCZ_Y263_R260H]	0.635
SDYSRYARTSI [TERT_Y949_S948R]	0.351
PKSLFYLLLKL [TRPC6_Y775]	1.48
AIYRRYSKFFD [SH3PXD2B_Y45]	0.555
NLNGKYNKPRA [ANGPTL3_Y417]	0.525
LITTLYIGFLG [KCNQ1_Y267]	1.89
TMKSHYMELFD [BBS2_Y644_R643H_YF]	0.72
VVLGSYDRLRV [IFT172_Y260]	0.582
HNLYSYPTKHE [MYO3A_Y1396]	0.838
APNEFYDGDHD [HDAC3_Y414]	1.18

The sequences below were run on Fer (mouse) in the same assay as above.

Sequence	phosphorylation enrichment
LTERGYSFTTK [ACTG1_Y198_T203K]	2.1
GLAKGYIDPET [CSNK1G2_Y195_E194G]	0.482
KRFRIYHLAIS [BRCA2_Y3009_T3013I_YF]	0.48
LEYNEYFRDLN [HPRT1_Y198_D194E]	0.804
RDMNAYIRPSP [MMAA_Y207]	1.19
HELYVYKCDEN [DOCK3_Y548]	0.719
EIRTQYEVMAS [GFAP_Y242_A244V]	0.49
FADIAYNFHHG [PAH_Y166_R169H_YF]	0.483
DAPVVYLGSFG [PRAG1_Y132_R137G]	0.475
VVEFGYEFFAK [PPP1CB_Y254_D252Y_YF]	0.553
AIMSFYATLID [RYR1_Y2426_A2428T]	0.791
TLDTDYQMTKR [ADA_Y308]	0.697
NKFTTYLPRLP [C9orf24_Y126_YF]	0.36
GFRVFYTPDSR [PTPRF_Y451_YF]	0.462
PYIDSYEKDVA [PGM1_Y521_L516P]	0.852
GIFEDYVEGLR [MYL6_Y89_T85I_YF]	0.607
HFECKYVINAI [MAOA_Y268_YF]	0.502
RHFTTYDTNGR [CLCA1_Y665_Y661H]	0.594
QQLQGYVPSNY [FRK_Y99_I100V]	0.45
IGHGSYAKVLL [PRKCZ_Y263_R260H]	0.68
SDYSRYARTSI [TERT_Y949_S948R]	0.388
PKSLFYLLLKL [TRPC6_Y775]	1.51
AIYRRYSKFFD [SH3PXD2B_Y45]	0.383
NLNGKYNKPRA [ANGPTL3_Y417]	0.372
LITTLYIGFLG [KCNQ1_Y267]	0.929
TMKSHYMELFD [BBS2_Y644_R643H_YF]	0.547
VVLGSYDRLRV [IFT172_Y260]	0.45
HNLYSYPTKHE [MYO3A_Y1396]	15.2
APNEFYDGDHD [HDAC3_Y414]	0.59

Each sequence was assayed against Fes (UniProt P07332) in the same assay as above.
Sequence of Fes (P07332 whole entry, looked up): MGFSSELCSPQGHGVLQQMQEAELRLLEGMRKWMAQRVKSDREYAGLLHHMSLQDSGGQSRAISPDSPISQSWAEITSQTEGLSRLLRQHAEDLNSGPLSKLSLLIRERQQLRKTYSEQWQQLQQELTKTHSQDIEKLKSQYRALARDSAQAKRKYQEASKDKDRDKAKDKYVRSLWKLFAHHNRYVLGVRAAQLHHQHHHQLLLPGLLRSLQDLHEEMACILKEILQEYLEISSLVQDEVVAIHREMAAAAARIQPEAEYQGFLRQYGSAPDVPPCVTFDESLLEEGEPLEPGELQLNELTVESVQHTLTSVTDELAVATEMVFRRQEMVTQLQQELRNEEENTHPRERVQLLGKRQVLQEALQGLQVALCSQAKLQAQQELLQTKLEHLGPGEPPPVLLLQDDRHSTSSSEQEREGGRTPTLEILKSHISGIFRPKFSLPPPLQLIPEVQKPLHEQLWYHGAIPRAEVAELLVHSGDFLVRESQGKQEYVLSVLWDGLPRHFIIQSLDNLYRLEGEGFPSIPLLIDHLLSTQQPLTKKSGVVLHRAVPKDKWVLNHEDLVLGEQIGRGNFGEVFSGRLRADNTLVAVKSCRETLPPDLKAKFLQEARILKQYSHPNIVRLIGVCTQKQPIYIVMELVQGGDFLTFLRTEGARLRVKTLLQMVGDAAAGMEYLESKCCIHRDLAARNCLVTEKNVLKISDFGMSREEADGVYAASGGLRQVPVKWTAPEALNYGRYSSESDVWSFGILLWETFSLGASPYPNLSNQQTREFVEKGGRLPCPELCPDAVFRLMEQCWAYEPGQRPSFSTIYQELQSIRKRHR

Sequence	phosphorylation enrichment
LTERGYSFTTK [ACTG1_Y198_T203K]	2.1
GLAKGYIDPET [CSNK1G2_Y195_E194G]	0.795
KRFRIYHLAIS [BRCA2_Y3009_T3013I_YF]	0.942
LEYNEYFRDLN [HPRT1_Y198_D194E]	2.09
RDMNAYIRPSP [MMAA_Y207]	1.24
HELYVYKCDEN [DOCK3_Y548]	1.19
EIRTQYEVMAS [GFAP_Y242_A244V]	0.839
FADIAYNFHHG [PAH_Y166_R169H_YF]	0.725
DAPVVYLGSFG [PRAG1_Y132_R137G]	0.851
VVEFGYEFFAK [PPP1CB_Y254_D252Y_YF]	1.26
AIMSFYATLID [RYR1_Y2426_A2428T]	1.51
TLDTDYQMTKR [ADA_Y308]	0.781
NKFTTYLPRLP [C9orf24_Y126_YF]	0.784
GFRVFYTPDSR [PTPRF_Y451_YF]	1.19
PYIDSYEKDVA [PGM1_Y521_L516P]	1.48
GIFEDYVEGLR [MYL6_Y89_T85I_YF]	1.17
HFECKYVINAI [MAOA_Y268_YF]	1.87
RHFTTYDTNGR [CLCA1_Y665_Y661H]	0.938
QQLQGYVPSNY [FRK_Y99_I100V]	0.874
IGHGSYAKVLL [PRKCZ_Y263_R260H]	0.805
SDYSRYARTSI [TERT_Y949_S948R]	0.581
PKSLFYLLLKL [TRPC6_Y775]	2.82
AIYRRYSKFFD [SH3PXD2B_Y45]	1.03
NLNGKYNKPRA [ANGPTL3_Y417]	0.613
LITTLYIGFLG [KCNQ1_Y267]	2.46
TMKSHYMELFD [BBS2_Y644_R643H_YF]	0.966
VVLGSYDRLRV [IFT172_Y260]	0.75
HNLYSYPTKHE [MYO3A_Y1396]	1.18
APNEFYDGDHD [HDAC3_Y414]	1.29

Each sequence was assayed against Fyn (UniProt P06241) in the same assay as above.
Sequence of Fyn (P06241 whole entry, looked up): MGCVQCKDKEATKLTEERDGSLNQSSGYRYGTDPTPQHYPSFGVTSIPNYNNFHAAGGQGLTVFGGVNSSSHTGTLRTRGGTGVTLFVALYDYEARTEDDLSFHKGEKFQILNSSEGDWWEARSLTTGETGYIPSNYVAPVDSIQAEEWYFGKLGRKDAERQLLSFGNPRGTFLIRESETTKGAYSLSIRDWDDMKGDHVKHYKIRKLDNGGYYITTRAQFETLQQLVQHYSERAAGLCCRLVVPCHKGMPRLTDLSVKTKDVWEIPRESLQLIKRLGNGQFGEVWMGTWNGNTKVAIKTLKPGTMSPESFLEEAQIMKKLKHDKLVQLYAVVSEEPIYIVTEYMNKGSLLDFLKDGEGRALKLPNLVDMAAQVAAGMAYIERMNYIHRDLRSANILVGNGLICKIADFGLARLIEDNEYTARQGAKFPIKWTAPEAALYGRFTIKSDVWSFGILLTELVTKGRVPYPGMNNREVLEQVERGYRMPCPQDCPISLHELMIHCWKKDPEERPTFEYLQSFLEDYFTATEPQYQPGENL

Sequence	phosphorylation enrichment
LTERGYSFTTK [ACTG1_Y198_T203K]	1.66
GLAKGYIDPET [CSNK1G2_Y195_E194G]	0.558
KRFRIYHLAIS [BRCA2_Y3009_T3013I_YF]	0.55
LEYNEYFRDLN [HPRT1_Y198_D194E]	1.01
RDMNAYIRPSP [MMAA_Y207]	1.01
HELYVYKCDEN [DOCK3_Y548]	0.761
EIRTQYEVMAS [GFAP_Y242_A244V]	0.484
FADIAYNFHHG [PAH_Y166_R169H_YF]	0.704
DAPVVYLGSFG [PRAG1_Y132_R137G]	0.514
VVEFGYEFFAK [PPP1CB_Y254_D252Y_YF]	0.573
AIMSFYATLID [RYR1_Y2426_A2428T]	0.508
TLDTDYQMTKR [ADA_Y308]	0.483
NKFTTYLPRLP [C9orf24_Y126_YF]	0.477
GFRVFYTPDSR [PTPRF_Y451_YF]	0.468
PYIDSYEKDVA [PGM1_Y521_L516P]	0.684
GIFEDYVEGLR [MYL6_Y89_T85I_YF]	0.7
HFECKYVINAI [MAOA_Y268_YF]	0.709
RHFTTYDTNGR [CLCA1_Y665_Y661H]	1.01
QQLQGYVPSNY [FRK_Y99_I100V]	0.486
IGHGSYAKVLL [PRKCZ_Y263_R260H]	0.624
SDYSRYARTSI [TERT_Y949_S948R]	0.443
PKSLFYLLLKL [TRPC6_Y775]	0.31
AIYRRYSKFFD [SH3PXD2B_Y45]	0.485
NLNGKYNKPRA [ANGPTL3_Y417]	0.659
LITTLYIGFLG [KCNQ1_Y267]	2.11
TMKSHYMELFD [BBS2_Y644_R643H_YF]	0.51
VVLGSYDRLRV [IFT172_Y260]	0.404
HNLYSYPTKHE [MYO3A_Y1396]	5.22
APNEFYDGDHD [HDAC3_Y414]	0.535
